Data: patent CN114591430A
Values joined by “and” are separate entries in the source; they are usually repeats but may differ in a detail not shown here. Equal values may be shown once.

Columns and labels:
CHO细胞裂解液 [1] = test: sandwich ELISA, coat B2, detection biotin-B6, lysate 1 mg/ml
HEK293细胞裂解液 [2] = test: as above
Vero细胞裂解液 [3] = test: as above
CHO细胞裂解液 [4] = test: sandwich ELISA, coat B2, detection biotin-B6, lysate 125 ug/ml
HEK293细胞裂解液 [5] = test: as above
Vero细胞裂解液 [6] = test: as above
CHO细胞裂解液 [7] = test: sandwich ELISA, coat B2, detection biotin-B6, lysate 7.81 ug/ml
HEK293细胞裂解液 [8] = test: as above
Vero细胞裂解液 [9] = test: as above
牛血清白蛋白(BSA) (bovine) [10] = target: 牛血清白蛋白(BSA) (bovine) (UniProt P02769); test: sandwich ELISA, coat B2 2 ug/ml, BSA 1 ng/ml, detection biotin-B4 0.2 ug/ml
UniProt P02769, sequence (P02769 25-607): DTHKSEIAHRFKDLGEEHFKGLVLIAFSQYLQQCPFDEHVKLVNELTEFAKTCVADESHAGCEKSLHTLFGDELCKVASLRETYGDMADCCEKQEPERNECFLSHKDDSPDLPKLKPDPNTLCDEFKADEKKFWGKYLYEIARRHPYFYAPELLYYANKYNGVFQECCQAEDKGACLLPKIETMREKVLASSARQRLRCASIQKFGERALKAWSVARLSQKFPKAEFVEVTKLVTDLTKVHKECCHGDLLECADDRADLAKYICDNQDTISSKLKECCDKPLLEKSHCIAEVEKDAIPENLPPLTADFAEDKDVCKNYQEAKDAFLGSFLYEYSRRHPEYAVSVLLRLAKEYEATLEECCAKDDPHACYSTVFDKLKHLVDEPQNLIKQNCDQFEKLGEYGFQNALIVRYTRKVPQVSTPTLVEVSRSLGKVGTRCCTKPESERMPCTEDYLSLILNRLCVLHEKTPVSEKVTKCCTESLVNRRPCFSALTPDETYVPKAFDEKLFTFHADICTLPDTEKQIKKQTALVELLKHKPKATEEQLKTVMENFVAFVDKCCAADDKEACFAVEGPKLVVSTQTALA

牛血清白蛋白(BSA) (bovine) [11] = target: 牛血清白蛋白(BSA) (bovine) (UniProt P02769); test: sandwich ELISA, coat B2 2 ug/ml, BSA 1 ng/ml, detection biotin-B5 0.2 ug/ml
牛血清白蛋白(BSA) (bovine) [12] = target: 牛血清白蛋白(BSA) (bovine) (UniProt P02769); test: sandwich ELISA, coat B2 2 ug/ml, BSA 3 ng/ml, detection biotin-B6 0.2 ug/ml
牛血清白蛋白(BSA) (bovine) [13] = target: 牛血清白蛋白(BSA) (bovine) (UniProt P02769); test: sandwich ELISA, coat B2 2 ug/ml, BSA 6 ng/ml, detection biotin-B6 0.2 ug/ml
牛血清白蛋白(BSA) (bovine) [14] = target: 牛血清白蛋白(BSA) (bovine) (UniProt P02769); test: sandwich ELISA, coat B2 2 ug/ml, BSA 48 ng/ml, detection biotin-B6 0.2 ug/ml
牛血清白蛋白(BSA) (bovine) [15] = target: 牛血清白蛋白(BSA) (bovine) (UniProt P02769); test: sandwich ELISA, coat B2 2 ug/ml, BSA 1.5 ng/ml, detection biotin-B6 0.2 ug/ml
牛血清白蛋白(BSA) (bovine) [16] = target: 牛血清白蛋白(BSA) (bovine) (UniProt P02769); test: sandwich ELISA, coat B2 2 ug/ml, BSA 0.75 ng/ml, detection biotin-B6 0.2 ug/ml
牛血清白蛋白(BSA) (bovine) [17] = target: 牛血清白蛋白(BSA) (bovine) (UniProt P02769); test: ELISA, BSA coated at 1 ug/ml, biotin-labelled antibody at dilution 1K, HRP-avidin
牛血清白蛋白(BSA) (bovine) [18] = target: 牛血清白蛋白(BSA) (bovine) (UniProt P02769); test: ELISA, BSA coated at 1 ug/ml, biotin-labelled antibody at dilution 64K, HRP-avidin
牛血清白蛋白(BSA) (bovine) [19] = target: 牛血清白蛋白(BSA) (bovine) (UniProt P02769); test: ELISA, BSA coated at 1 ug/ml, biotin-labelled antibody at dilution 512K, HRP-avidin
牛血清白蛋白(BSA) (bovine) [20] = target: 牛血清白蛋白(BSA) (bovine) (UniProt P02769); test: ELISA, BSA coated at 1 ug/ml, biotin-labelled antibody at dilution 1024K, HRP-avidin
牛血清白蛋白(BSA) (bovine) [21] = target: 牛血清白蛋白(BSA) (bovine) (UniProt P02769); test: sandwich ELISA, coat B2 2 ug/ml, BSA 12 ng/ml, detection biotin-B6 0.2 ug/ml, mean of A and B
牛血清白蛋白(BSA) (bovine) [22] = target: 牛血清白蛋白(BSA) (bovine) (UniProt P02769); test: sandwich ELISA, coat B2 2 ug/ml, BSA 24 ng/ml, detection biotin-B6 0.2 ug/ml, mean of A and B
牛血清白蛋白(BSA) (bovine) [23] = target: 牛血清白蛋白(BSA) (bovine) (UniProt P02769); test: sandwich ELISA, coat B2 2 ug/ml, BSA 48 ng/ml, detection biotin-B6 0.2 ug/ml, mean of A and B
牛血清白蛋白(BSA) (bovine) [24] = target: 牛血清白蛋白(BSA) (bovine) (UniProt P02769); test: sandwich ELISA, coat B2 2 ug/ml, BSA 1 ng/ml (positive sample), detection biotin-B6 0.2 ug/ml
牛血清白蛋白(BSA) (bovine) [25] = target: 牛血清白蛋白(BSA) (bovine) (UniProt P02769); test: sandwich ELISA, coat B2 2 ug/ml, BSA 0.75 ng/ml, detection biotin-B6 0.2 ug/ml, mean of A and B
牛血清白蛋白(BSA) (bovine) [26] = target: 牛血清白蛋白(BSA) (bovine) (UniProt P02769); test: indirect ELISA, BSA coated at 1 ug/ml, purified antibody at dilution 4K, HRP goat anti-mouse IgG
牛血清白蛋白(BSA) (bovine) [27] = target: 牛血清白蛋白(BSA) (bovine) (UniProt P02769); test: indirect ELISA, BSA coated at 1 ug/ml, purified antibody at dilution 8K, HRP goat anti-mouse IgG
牛血清白蛋白(BSA) (bovine) [28] = target: 牛血清白蛋白(BSA) (bovine) (UniProt P02769); test: indirect ELISA, BSA coated at 1 ug/ml, purified antibody at dilution 16K, HRP goat anti-mouse IgG
牛血清白蛋白(BSA) (bovine) [29] = target: 牛血清白蛋白(BSA) (bovine) (UniProt P02769); test: indirect ELISA, BSA coated at 1 ug/ml, purified antibody at dilution 128K, HRP goat anti-mouse IgG
牛血清白蛋白(BSA) (bovine) [30] = target: 牛血清白蛋白(BSA) (bovine) (UniProt P02769); test: indirect ELISA, BSA coated at 1 ug/ml, purified antibody at dilution 1024K, HRP goat anti-mouse IgG

OD450 (CHO细胞裂解液 [1]): 0.132 | OD450 (HEK293细胞裂解液 [2]): 0.142 | OD450 (Vero细胞裂解液 [3]): 0.129 | OD450 (CHO细胞裂解液 [4]): 0.14 | OD450 (HEK293细胞裂解液 [5]): 0.14 | OD450 (Vero细胞裂解液 [6]): 0.132 | OD450 (CHO细胞裂解液 [7]): 0.136 | OD450 (HEK293细胞裂解液 [8]): 0.132 | OD450 (Vero细胞裂解液 [9]): 0.138 | OD450 (牛血清白蛋白(BSA) (bovine) [10]): 0.319 and 0.332 | OD450 (牛血清白蛋白(BSA) (bovine) [11]): 0.312 and 0.315 | OD450 (牛血清白蛋白(BSA) (bovine) [12]): 0.509 and 0.515 | OD450 (牛血清白蛋白(BSA) (bovine) [13]): 0.684 and 0.692 | OD450 (牛血清白蛋白(BSA) (bovine) [14]): 2.2 and 2.21 | OD450 (牛血清白蛋白(BSA) (bovine) [15]): 0.404 and 0.412 | OD450 (牛血清白蛋白(BSA) (bovine) [16]): 0.31 and 0.296 | OD450 (牛血清白蛋白(BSA) (bovine) [17]): 2.3 | OD450 (牛血清白蛋白(BSA) (bovine) [18]): 1.12 | OD450 (牛血清白蛋白(BSA) (bovine) [19]): 0.308 | OD450 (牛血清白蛋白(BSA) (bovine) [20]): 0.175 | OD450 (平均值) (牛血清白蛋白(BSA) (bovine) [21]): 1 | OD450 (平均值) (牛血清白蛋白(BSA) (bovine) [22]): 1.5 | OD450 (平均值) (牛血清白蛋白(BSA) (bovine) [23]): 2.21 | OD450 (牛血清白蛋白(BSA) (bovine) [24]): 0.392 and 0.389 | OD450 (平均值) (牛血清白蛋白(BSA) (bovine) [25]): 0.303 | OD450 (牛血清白蛋白(BSA) (bovine) [26]): 0.9 | OD450 (牛血清白蛋白(BSA) (bovine) [27]): 0.728 | OD450 (牛血清白蛋白(BSA) (bovine) [28]): 0.537 | OD450 (牛血清白蛋白(BSA) (bovine) [29]): 0.357 | OD450 (牛血清白蛋白(BSA) (bovine) [30]): 0.144
B1: BSA抗体B2 (antibody, V domains shown)
VH: VKLQESGGGLVKPGGSLKLSCAASGFTFSLYDESWVRQTPEKRLEWVAEIFLGVYRYVPESKVRFTMSRDNAKNTLYLQMSSLRSEDTAMYYCVRLCYWEPEVKKCWGQGTTVTVSS
VL: DIELTQSPLTLSVTIGQPASISCESDLSLKESLDWLLQRPGQSPKRLIYEDLNADCGVPDRFTGSGSGTDSTLKISRVEAEDLGVYYCEIKGTFRWSFGGGTKLEIK
